Measured values reported in patent US20210388110A1 (published 2021).
Where a chain is given by its changes, count along the chain named. One block for each binder: values may come before it.

Molecular target: T1, soluble human CD3ε chain (human, UniProt P07766 23-126, limits assumed)
T1 construct: also called human CD3 epsilon chain
Experiment: SPR (Biacore), soluble human CD3ε chain

T1 sequence (P07766 23-126 limits assumed): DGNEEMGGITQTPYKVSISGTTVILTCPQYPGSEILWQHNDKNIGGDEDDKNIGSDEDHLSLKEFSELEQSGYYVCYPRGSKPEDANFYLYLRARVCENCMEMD

- Kd: 80 nM
B2: rCE115H-E22Hh/none-Hi-Kn010G3/L0000-k0 (antibody, human IgG1, kappa, L234A L235A, N297A)
heavy: EVQLVETGGSLVQPGKSLKLTCATSGFTFSNAWMHWVRQSPEKQLEWVAQIKAKSNNYATYYAESVKGRFTISRDDSKSNIYLQMNSLKEEDTAVYYCRYVHYGAYYGVDAWGQGTSVTVSSASTKGPSVFPLAPSSKSTSGGTAALGCLVKDYFPEPVTVSWNSGALTSGVHTFPAVLQSSGLYSLSSVVTVPSSSLGTQTYICNVNHKPSNTKVDKKVEPKSCDKTHTCPPCPAPEAAGGPSVFLFPPKPKDTLMISRTPEVTCVVVDVSHEDPEVKFNWYVDGVEVHNAKTKPREEQYASTYRVVSVLTVLHQDWLNGKEYKCKVSNKALPAPIEKTISKAKGQPREPQVYTLPPSRCELTKNQVSLSCAVKGFYPSDIAVEWESNGQPENNYKTTPPVLDSDGSFFLVSKLTVDKSRWQQGNVFSCSVMHEALHNHYTQKSLSLSPDYKDDDDK
chain: EPKSSDKTHTCPPCPAPELLGGPSVFLFPPKPKDTLMISRTPEVTCVVVDVSHEDPEVKFNWYVDGVEVHNAKTKPREEQYNSTYRVVSVLTVLHQDWLNGKEYKCKVSNKALPAPIEKTISKAKGQPREPQVCTLPPSRDELTKNQVSLWCLVKGFYPSDIAVEWESNGQPENNYKTTPPVLDSDGSFFLYSKLTVDKSRWQQGNVFSCSVMHEALHNRYTQKSLSLSP
light: DIVMTQSPLSLPVTPGEPASISCRSSQSLVHSNRNTYLHWYQQKPGQAPRLLIYKVSNRFSGVPDRFSGSGSGTDFTLKISRVEAEDVGVYYCGQGTQVPYTFGQGTKLEIKRTVAAPSVFIFPPSDEQLKSGTASVVCLLNNFYPREAKVQWKVDNALQSGNSQESVTEQDSKDSTYSLSSTLTLSKADYEKHKVYACEVTHQGLSSPVTKSFNRGEC
notes: one-arm antibody (single Fab) with Fab-less hinge-Fc chain Hi-Kn010G3

- Kd: 77.2 nM
B3: TR01H103-E22Hh/none-Hi-Kn010G3/L0011-k0 (antibody, human IgG1, kappa, L234A L235A, N297A)
heavy: QVQLVESGGGLVQPGRSLRLSCAASGFTFSNAWMHWVRQAPGKGLEWVAQIKDKSQNYATYGAESVKGRFTISRDDSKNSLYLQMNSLKTEDTAVYYCRYVHYAAGYGVDAWGQGTTVTVSSASTKGPSVFPLAPSSKSTSGGTAALGCLVKDYFPEPVTVSWNSGALTSGVHTFPAVLQSSGLYSLSSVVTVPSSSLGTQTYICNVNHKPSNTKVDKKVEPKSCDKTHTCPPCPAPEAAGGPSVFLFPPKPKDTLMISRTPEVTCVVVDVSHEDPEVKFNWYVDGVEVHNAKTKPREEQYASTYRVVSVLTVLHQDWLNGKEYKCKVSNKALPAPIEKTISKAKGQPREPQVYTLPPSRCELTKNQVSLSCAVKGFYPSDIAVEWESNGQPENNYKTTPPVLDSDGSFFLVSKLTVDKSRWQQGNVFSCSVMHEALHNHYTQKSLSLSPDYKDDDDK
chain: B2 chain
light: B2 light with S28P
notes: as for B2

- Kd: 108 nM
B5: hCE115HAa-E22Hh/none-Hi-Kn010G3/L0000-k0 (antibody, human IgG1, kappa, L234A L235A, N297A)
heavy: B3 heavy with L11V, R16G, D53A, Q56N, G62Y, A104G, G106Y
chain: B2 chain
light: B2 light
notes: as for B2

- Kd: 85.4 nM
B7: TR01H102-E22Hh/none-Hi-Kn010G3/L0011-k0 (antibody, human IgG1, kappa, L234A L235A, N297A)
heavy: B3 heavy with G62F
chain: B2 chain
light: B2 light with S28P
notes: as for B2

- Kd: 82.6 nM
B8: TR01H104-E22Hh/none-Hi-Kn010G3/L0011-k0 (antibody, human IgG1, kappa, L234A L235A, N297A)
heavy: B3 heavy with G62I
chain: B2 chain
light: B2 light with S28P
notes: as for B2

- Kd: 100 nM
B10: TR01H106-E22Hh/none-Hi-Kn010G3/L0011-k0 (antibody, human IgG1, kappa, L234A L235A, N297A)
heavy: B3 heavy with G62P
chain: B2 chain
light: B2 light with S28P
notes: as for B2

- Kd: 77.4 nM
B11: TR01H099-E22Hh/none-Hi-Kn010G3/L0011-k0 (antibody, human IgG1, kappa, L234A L235A, N297A)
heavy: B3 heavy with T60Q, G62Y
chain: B2 chain
light: B2 light with S28P
notes: as for B2

- Kd: 69.1 nM
B15: TR01H107-E22Hh/none-Hi-Kn010G3/L0011-k0 (antibody, human IgG1, kappa, L234A L235A, N297A)
heavy: B3 heavy with G62Q
chain: B2 chain
light: B2 light with S28P
notes: as for B2

- Kd: 69.8 nM
B17: TR01H108-E22Hh/none-Hi-Kn010G3/L0011-k0 (antibody, human IgG1, kappa, L234A L235A, N297A)
heavy: B3 heavy with G62T
chain: B2 chain
light: B2 light with S28P
notes: as for B2

- Kd: 78.7 nM
B21: TR01H101-E22Hh/none-Hi-Kn010G3/L0011-k0 (antibody, human IgG1, kappa, L234A L235A, N297A)
heavy: B3 heavy with T60V, G62Y
chain: B2 chain
light: B2 light with S28P
notes: as for B2

- Kd: 70.6 nM
B23: TR01H109-E22Hh/none-Hi-Kn010G3/L0011-k0 (antibody, human IgG1, kappa, L234A L235A, N297A)
heavy: B3 heavy with G62V
chain: B2 chain
light: B2 light with S28P
notes: as for B2

- Kd: 69.5 nM
B27: TR01H105-E22Hh/none-Hi-Kn010G3/L0011-k0 (antibody, human IgG1, kappa, L234A L235A, N297A)
heavy: B3 heavy with G62L
chain: B2 chain
light: B2 light with S28P
notes: as for B2

- Kd: 91.4 nM
B28: TR01H098-E22Hh/none-Hi-Kn010G3/L0011-k0 (antibody, human IgG1, kappa, L234A L235A, N297A)
heavy: B3 heavy with T60P, G62Y
chain: B2 chain
light: B2 light with S28P
notes: as for B2

- Kd: 87.6 nM
B29: TR01H097-E22Hh/none-Hi-Kn010G3/L0011-k0 (antibody, human IgG1, kappa, L234A L235A, N297A)
heavy: B3 heavy with T60L, G62Y
chain: B2 chain
light: B2 light with S28P
notes: as for B2

- Kd: 124 nM
B31: hCE115HA-E22Hh/none-Hi-Kn010G3/L0000-k0 (antibody, human IgG1, kappa, L234A L235A, N297A)
heavy: B3 heavy with L11V, D53A, Q56N, G62Y, A104G, G106Y
chain: B2 chain
light: B2 light
notes: as for B2

Further lines, the binder ahead of its results:

B1: TR01H070-E22Hh/none-Hi-Kn010G3/L0000-k0 (antibody, human IgG1, kappa, L234A L235A, N297A)
heavy: B3 heavy with L11V, R16G, G62Y, G106S, A111Y
chain: B2 chain
light: B2 light
notes: as for B2
- Kd: 120 nM

B4: TR01H091-E22Hh/none-Hi-Kn010G3/L0011-k0 (antibody, human IgG1, kappa, L234A L235A, N297A)
heavy: B3 heavy with R19K, G62Y
chain: B2 chain
light: B2 light with S28P
notes: as for B2
- Kd: 66.7 nM

B6: TR01H082-E22Hh/none-Hi-Kn010G3/TR01L020-k0 (antibody, human IgG1, kappa, L234A L235A, N297A)
heavy: B3 heavy with G62Y
chain: B2 chain
light: B2 light with R24Q, S25A, Q27E, L29P, L38I, H39Q, Q42L, A48S, R50Q, G94Y
notes: as for B2
- Kd: 106 nM

B9: TR01H082-E22Hh/none-Hi-Kn010G3/L0222-k0 (antibody, human IgG1, kappa, L234A L235A, N297A)
heavy: B3 heavy with G62Y
chain: B2 chain
light: B2 light with L29P, L38I, H39Q, G94Y
notes: as for B2
- Kd: 101 nM

B12: TR01H095-E22Hh/none-Hi-Kn010G3/L0011-k0 (antibody, human IgG1, kappa, L234A L235A, N297A)
heavy: B3 heavy with T60F, G62Y
chain: B2 chain
light: B2 light with S28P
notes: as for B2
- Kd: 90.9 nM

B13: TR01H093-E22Hh/none-Hi-Kn010G3/L0011-k0 (antibody, human IgG1, kappa, L234A L235A, N297A)
heavy: B3 heavy with G62Y, K67Q
chain: B2 chain
light: B2 light with S28P
notes: as for B2
- Kd: 68 nM

B14: TR01H082-E22Hh/none-Hi-Kn010G3/L0272-k0 (antibody, human IgG1, kappa, L234A L235A, N297A)
heavy: B3 heavy with G62Y
chain: B2 chain
light: B2 light with S28P, N35Q
notes: as for B2
- Kd: 74.4 nM

B16: TR01H082-E22Hh/none-Hi-Kn010G3/L0268-k0 (antibody, human IgG1, kappa, L234A L235A, N297A)
heavy: B3 heavy with G62Y
chain: B2 chain
light: B2 light with L29P, L38I, H39Q, G94V
notes: as for B2
- Kd: 136 nM

B18: TR01H082-E22Hh/none-Hi-Kn010G3/L0270-k0 (antibody, human IgG1, kappa, L234A L235A, N297A)
heavy: B3 heavy with G62Y
chain: B2 chain
light: B2 light with N35Q
notes: as for B2
- Kd: 74.2 nM

B19: TR01H082-E22Hh/none-Hi-Kn010G3/L0271-k0 (antibody, human IgG1, kappa, L234A L235A, N297A)
heavy: B3 heavy with G62Y
chain: B2 chain
light: B2 light with S28P, L29P, N35Q
notes: as for B2
- Kd: 68.2 nM

B20: TR01H096-E22Hh/none-Hi-Kn010G3/L0011-k0 (antibody, human IgG1, kappa, L234A L235A, N297A)
heavy: B3 heavy with T60G, G62Y
chain: B2 chain
light: B2 light with S28P
notes: as for B2
- Kd: 74.7 nM

B22: TR01H090-E22Hh/none-Hi-Kn010G3/L0011-k0 (antibody, human IgG1, kappa, L234A L235A, N297A)
heavy: B3 heavy with R16G, G62Y
chain: B2 chain
light: B2 light with S28P
notes: as for B2
- Kd: 69.5 nM

B24: TR01H075-E22Hh/none-Hi-Kn010G3/L0000-k0 (antibody, human IgG1, kappa, L234A L235A, N297A)
heavy: B3 heavy with G62Y, G106S, A111Y
chain: B2 chain
light: B2 light
notes: as for B2
- Kd: 98.8 nM

B25: TR01H092-E22Hh/none-Hi-Kn010G3/L0011-k0 (antibody, human IgG1, kappa, L234A L235A, N297A)
heavy: B3 heavy with G62Y, K67A
chain: B2 chain
light: B2 light with S28P
notes: as for B2
- Kd: 72.1 nM

B26: TR01H082-E22Hh/none-Hi-Kn010G3/TR01L017-k0 (antibody, human IgG1, kappa, L234A L235A, N297A)
heavy: B3 heavy with G62Y
chain: B2 chain
light: B2 light with L29P, L38I, H39Q, Q42L, A48S, R50Q, G94Y
notes: as for B2
- Kd: 109 nM

B30: TR01H094-E22Hh/none-Hi-Kn010G3/L0011-k0 (antibody, human IgG1, kappa, L234A L235A, N297A)
heavy: B3 heavy with G62Y, K67S
chain: B2 chain
light: B2 light with S28P
notes: as for B2
- Kd: 70 nM
